For one substance, numbers of primary neural stem cell colonies generated (ES cells in LIF, 20% v/v mCer-1 supernatant) results are on record in patent US20020164791A1.

The target in this assay is endogenous BMP released from the ES cells (BMP4) (mouse) (UniProt P21275). As to the kind of experiment: cell-based or functional assay.
UniProt P21275, sequence (P21275 293-408 limits assumed): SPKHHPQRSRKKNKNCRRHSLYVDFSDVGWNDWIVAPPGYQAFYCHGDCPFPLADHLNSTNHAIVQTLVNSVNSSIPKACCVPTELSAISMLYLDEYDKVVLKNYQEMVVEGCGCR

Take “mouse Cerberus-like (mCer-1) protein (from UniProt O55233 18-272) (ligand)”: the numbers of primary neural stem cell colonies generated (ES cells in LIF, 20% v/v mCer-1 supernatant) amounted to 50 % increase.
